Data reported in patent US20220411483A1 (Chugai, published 2022).
Residue numbers refer to the chain shown, from its start.

B1: IL6R-P588/IL6R-L (antibody, human IgG1, kappa)
heavy: QVQLQESGPGLVKPSETLSLTCAVSGHSISHDHAWSWVRQPPGEGLEWIGFISYSGITNYNPSLQGRVTISRDNSKNTLYLQMNSLRAEDTAVYYCARSLARTTAMDYWGEGTLVTVSSASTKGPSVFPLAPSSKSTSGGTAALGCLVKDYFPEPVTVSWNSGALTSGVHTFPAVLQSSGLYSLSSVVTVPSSSLGTQTYICNVNHKPSNTKVDKKVEPKSCDKTHTCPPCPAPELLGGDSVFLFPPKPKDTLMISRTPEVTCVVIDVAEEDGEVKFNWYVDGVEVHNAKTKPREEQYNSTYRVVSVLTVLHQDWLNGKEYKCKVSNKALPAPIEKTISKAKGQPREPQVYTLPPSRDELTKNQVSLTCLVKGFYPSDIAVEWESNGQPENNYKTTPPVLDSDGSFFLYSKLTVDKSRWQQGNVFSCSVMHEALHNHYTQKSLSLSP
light: not shown
B2: IL6R-P691/IL6R-L (antibody, human IgG1, kappa)
heavy: B1 heavy with L237F, G239Q, F243M, I266V, A269S, E270H, G273P, Y298E
light: not shown
B3: IL6R-P727/IL6R-L (antibody, human IgG1, kappa)
heavy: B1 heavy with G239Q, F243M, I266V, A269S, E270P, G273P, Y298E, A332H
light: not shown
B4: IL6R-P729/IL6R-L (antibody, human IgG1, kappa)
heavy: B1 heavy with L237F, G239Q, F243M, I266V, A269S, E270P, G273P, Y298E
light: not shown
B5: IL6R-P733/IL6R-L (antibody, human IgG1, kappa)
heavy: B1 heavy with L237F, G239Q, F243M, I266V, A269S, E270P, G273P, Y298E, S326H
light: not shown
B6: IL6R-P737/IL6R-L (antibody, human IgG1, kappa)
heavy: B1 heavy with G239Q, F243M, I266V, A269S, E270P, G273P, Y298E, S326H, A332H
light: not shown
B7: IL6R-P743/IL6R-L (antibody, human IgG1, kappa)
heavy: B1 heavy with I266V, A269S, E270H, G273P, A329G, A332S, P333S
light: not shown
B8: IL6R-P744/IL6R-L (antibody, human IgG1, kappa)
heavy: B1 heavy with I266V, A269S, E270H, G273P, S300A, K324A
light: not shown
B9: IL6R-P745/IL6R-L (antibody, human IgG1, kappa)
heavy: B1 heavy with I266V, A269S, E270H, G273P, S300A, K324E
light: not shown
B10: IL6R-P746/IL6R-L (antibody, human IgG1, kappa)
heavy: B1 heavy with L237F, G239Q, F243M, I266V, A269S, E270H, G273P, Y298E, K324A
light: not shown
B11: IL6R-P747/IL6R-L (antibody, human IgG1, kappa)
heavy: B1 heavy with L237F, G239Q, F243M, I266V, A269S, E270H, G273P, Y298E, K324E
light: not shown
B12: IL6R-P748/IL6R-L (antibody, human IgG1, kappa)
heavy: B1 heavy with G239Q, F243M, I266V, A269S, E270P, G273P, Y298E, K324A, A332H
light: not shown
B13: IL6R-P749/IL6R-L (antibody, human IgG1, kappa)
heavy: B1 heavy with G239Q, F243M, I266V, A269S, E270P, G273P, Y298E, K324E, A332H
light: not shown
B14: IL6R-P750/IL6R-L (antibody, human IgG1, kappa)
heavy: B1 heavy with L237F, G239Q, F243M, I266V, A269S, E270P, G273P, Y298E, K324A
light: not shown
B15: IL6R-P751/IL6R-L (antibody, human IgG1, kappa)
heavy: B1 heavy with L237F, G239Q, F243M, I266V, A269S, E270P, G273P, Y298E, K324E
light: not shown
B16: IL6R-P752/IL6R-L (antibody, human IgG1, kappa)
heavy: B1 heavy with L237F, G239Q, F243M, I266V, A269S, E270P, G273P, Y298E, K324A, S326H
light: not shown
B17: IL6R-P753/IL6R-L (antibody, human IgG1, kappa)
heavy: B1 heavy with L237F, G239Q, F243M, I266V, A269S, E270P, G273P, Y298E, K324E, S326H
light: not shown
B18: IL6R-P754/IL6R-L (antibody, human IgG1, kappa)
heavy: B1 heavy with G239Q, F243M, I266V, A269S, E270P, G273P, Y298E, K324A, S326H, A332H
light: not shown
B19: IL6R-P755/IL6R-L (antibody, human IgG1, kappa)
heavy: B1 heavy with G239Q, F243M, I266V, A269S, E270P, G273P, Y298E, K324E, S326H, A332H
light: not shown

Molecular target: T1, human FcγRIIa R type extracellular domain with C-terminal His tag (human, UniProt P12318 34-217)
T1 construct: extracellular domain; also called FcgRIIaR
T1 sequence (looked up): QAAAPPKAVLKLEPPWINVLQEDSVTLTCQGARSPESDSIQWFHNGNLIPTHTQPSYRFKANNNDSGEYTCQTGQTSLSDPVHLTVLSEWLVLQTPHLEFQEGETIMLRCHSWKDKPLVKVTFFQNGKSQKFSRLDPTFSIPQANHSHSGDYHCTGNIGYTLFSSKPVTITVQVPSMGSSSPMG
Test: SPR, antibody captured, FcgR analyte

Point of comparison: B10, Kd 18 µM. Against it:
- B1 — 11-fold lower, 1.6 µM
- B2 — 1.6-fold higher, 28 µM
- B3 — 1.9-fold higher, 34 µM
- B4 — within 1.5-fold, 16 µM
- B5 — within 1.5-fold, 13 µM
- B6 — 2.1-fold higher, 37 µM
- B7 — within 1.5-fold, 20 µM
- B8 — the same, 18 µM
- B9 — within 1.5-fold, 26 µM
- B11 — 1.5-fold higher, 27 µM
- B12 — 2.2-fold higher, 39 µM
- B13 — within 1.5-fold, 22 µM
- B14 — 2.7-fold higher, 49 µM
- B15 — within 1.5-fold, 19 µM
- B16 — 2.3-fold higher, 41 µM
- B17 — the same, 18 µM
- B18 — 1.8-fold lower, 10 µM
- B19 — within 1.5-fold, 17 µM

Molecular target: T2, human FcγRIa extracellular domain with C-terminal His tag (human, UniProt P12314 16-292)
T2 construct: Whole entry named; also called FcgRIa
T2 sequence (P12314 16-292): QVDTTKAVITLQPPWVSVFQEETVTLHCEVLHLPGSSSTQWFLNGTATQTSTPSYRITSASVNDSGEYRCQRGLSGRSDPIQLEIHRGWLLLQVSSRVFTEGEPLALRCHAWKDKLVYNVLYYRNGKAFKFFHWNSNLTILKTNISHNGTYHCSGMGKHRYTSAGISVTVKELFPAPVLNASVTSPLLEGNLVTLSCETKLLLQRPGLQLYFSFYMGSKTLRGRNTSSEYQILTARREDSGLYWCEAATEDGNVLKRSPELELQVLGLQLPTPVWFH
Test: SPR, antibody captured, FcgR analyte

Point of comparison: B2, Kd 0.13 µM. Against it:
- B1 — 93-fold lower, 0.0014 µM
- B3 — 1.8-fold lower, 0.071 µM
- B4 — 1.7-fold higher, 0.22 µM
- B5 — 1.5-fold higher, 0.2 µM
- B6 — 2.8-fold lower, 0.046 µM
- B7 — 7.2-fold lower, 0.018 µM
- B8 — 13-fold lower, 0.01 µM
- B9 — 26-fold lower, 0.005 µM
- B10 — 18-fold lower, 0.0074 µM
- B11 — within 1.5-fold, 0.09 µM
- B12 — within 1.5-fold, 0.1 µM
- B13 — 2.5-fold lower, 0.052 µM
- B14 — 1.8-fold higher, 0.23 µM
- B15 — 1.8-fold higher, 0.24 µM
- B16 — within 1.5-fold, 0.15 µM
- B17 — within 1.5-fold, 0.11 µM
- B18 — within 1.5-fold, 0.19 µM
- B19 — 1.5-fold lower, 0.085 µM

Molecular target: T3, human FcγRIIb extracellular domain with C-terminal His tag (human, UniProt P31994 43-217)
T3 construct: extracellular domain; also called FcgRIIb
T3 sequence (looked up): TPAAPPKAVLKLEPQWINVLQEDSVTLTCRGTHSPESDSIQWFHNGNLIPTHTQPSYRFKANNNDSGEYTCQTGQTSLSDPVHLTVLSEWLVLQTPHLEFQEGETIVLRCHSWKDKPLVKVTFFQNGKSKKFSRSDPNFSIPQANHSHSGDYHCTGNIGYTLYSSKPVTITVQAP
Test: SPR, antibody captured, FcgR analyte

Point of comparison: B19, Kd 4.1 µM. Against it:
- B1 — 110-fold lower, 0.038 µM
- B2 — 1.8-fold lower, 2.3 µM
- B3 — 1.5-fold lower, 2.7 µM
- B4 — within 1.5-fold, 3 µM
- B5 — within 1.5-fold, 4.5 µM
- B6 — within 1.5-fold, 4.3 µM
- B7 — within 1.5-fold, 3.6 µM
- B8 — within 1.5-fold, 3.2 µM
- B9 — within 1.5-fold, 3.1 µM
- B10 — within 1.5-fold, 3 µM
- B11 — 1.5-fold lower, 2.7 µM
- B12 — 1.5-fold higher, 6.2 µM
- B13 — within 1.5-fold, 4 µM
- B14 — within 1.5-fold, 4 µM
- B15 — within 1.5-fold, 3.5 µM
- B16 — within 1.5-fold, 4.2 µM
- B17 — within 1.5-fold, 2.8 µM
- B18 — 1.9-fold higher, 7.7 µM

Molecular target: T1, human FcγRIIa R type extracellular …
Test: SPR, KD of IL6R-G1d/IL6R-L divided by KD of variant

Point of comparison: B9, “Relative FcgRIIaR-binding Activity” value 0.04. Against it:
- B1 — higher, 0.69
- B2 — the same, 0.04
- B3 — lower, 0.03
- B4 — higher, 0.07
- B5 — higher, 0.08
- B6 — lower, 0.03
- B7 — higher, 0.06
- B8 — higher, 0.06
- B10 — higher, 0.06
- B11 — the same, 0.04
- B12 — lower, 0.03
- B13 — higher, 0.05
- B14 — lower, 0.02
- B15 — higher, 0.06
- B16 — lower, 0.03
- B17 — higher, 0.06
- B18 — higher, 0.11
- B19 — higher, 0.06

Molecular target: T4, human FcγRIIa H type extracellular domain with C-terminal His tag (human, UniProt P12318 34-217)
T4 construct: extracellular domain; also called FcgRIIaH
T4 sequence (looked up): T1 sequence (looked up) with R134H
Test: as above

Point of comparison: B3, “Relative FcgRIIaH-binding Activity” value 0.015. Against it:
- B1 — higher, 0.034
- B2 — lower, 0.01
- B4 — lower, 0.013
- B5 — lower, 0.014
- B6 — higher, 0.016
- B7 — lower, 0.013
- B8 — lower, 0.013
- B9 — lower, 0.014
- B10 — lower, 0.01
- B11 — lower, 0.012
- B12 — lower, 0.01
- B13 — lower, 0.009
- B14 — lower, 0.013
- B15 — lower, 0.013
- B16 — lower, 0.013
- B17 — lower, 0.014
- B18 — lower, 0.003
- B19 — lower, 0.005

Molecular target: T5, human FcγRIIIa V type extracellular domain with C-terminal His tag (human, UniProt P08637 17-208)
T5 construct: extracellular domain; also called FcgRIIIaV
T5 sequence (P08637 17-208 F176V): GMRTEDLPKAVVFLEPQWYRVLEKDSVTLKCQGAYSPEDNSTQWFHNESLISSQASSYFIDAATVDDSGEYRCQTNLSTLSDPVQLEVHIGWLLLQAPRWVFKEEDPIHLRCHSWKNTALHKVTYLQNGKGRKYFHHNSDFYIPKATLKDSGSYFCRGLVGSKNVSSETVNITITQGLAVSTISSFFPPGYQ
Test: as above

Point of comparison: B16, “Relative FcgRIIIaV-binding Activity” value 0.006. Against it:
- B1 — higher, 0.011
- B2 — lower, 0.004
- B3 — higher, 0.007
- B4 — the same, 0.006
- B5 — higher, 0.007
- B6 — higher, 0.007
- B7 — the same, 0.006
- B8 — higher, 0.007
- B9 — higher, 0.007
- B10 — lower, 0.005
- B11 — the same, 0.006
- B12 — lower, 0.005
- B13 — lower, 0.004
- B14 — the same, 0.006
- B15 — higher, 0.007
- B17 — higher, 0.007
- B18 — lower, 0.004
- B19 — lower, 0.005

Molecular target: T2, human FcγRIa extracellular domain with …
Test: as above

Point of comparison: B15, “Relative FcgRIa-binding Activity” value 0.001. Against it:
- B1 — higher, 0.229
- B2 — higher, 0.002
- B3 — higher, 0.005
- B4 — the same, 0.001
- B5 — higher, 0.002
- B6 — higher, 0.007
- B7 — higher, 0.018
- B8 — higher, 0.032
- B9 — higher, 0.064
- B10 — higher, 0.043
- B11 — higher, 0.004
- B12 — higher, 0.003
- B13 — higher, 0.006
- B14 — the same, 0.001
- B16 — higher, 0.002
- B17 — higher, 0.003
- B18 — higher, 0.002
- B19 — higher, 0.004

Molecular target: T3, human FcγRIIb extracellular domain with …
Test: as above

Point of comparison: B10, “Relative FcgRIIb-binding Activity” value 0.7. Against it:
- B1 — higher, 55.3
- B2 — higher, 0.9
- B3 — higher, 0.8
- B4 — the same, 0.7
- B5 — lower, 0.5
- B6 — lower, 0.5
- B7 — lower, 0.6
- B8 — the same, 0.7
- B9 — the same, 0.7
- B11 — higher, 0.8
- B12 — lower, 0.3
- B13 — lower, 0.5
- B14 — lower, 0.5
- B15 — lower, 0.6
- B16 — lower, 0.5
- B17 — higher, 0.8
- B18 — lower, 0.3
- B19 — lower, 0.5
